Results reported in the supplement of paper PMC12042874.
± gives the uncertainty stated by the source.

Test: amyloid nucleation score (Sup35N fusion, yeast selection) (log enrichment); library NNK2; higher = more nucleation; inactive = no reads after selection
How it was run: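 Three technical output replicates were used for random libraries. Psi-negative yeast expressing peptides of 20 random codons fused to Sup35N were induced with 100 μM copper sulfate for 24 hours and grown 7 days at 30°C on medium lacking adenine and uracil, and input and output plasmid inserts were Illumina-sequenced, excluding sequences with under 100 input reads. The nucleation score is the DiMSum log enrichment of output over input reads, centred on the mode score of non-aggregating sequences.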

Row | Substance | amyloid nucleation score
1 | GNIMSFSFMPDLGISFCPGC | 6.515 ± 0.049
2 | NNWYILPFAGFWDFGA | 5.341 ± 0.03
3 | GGGAAPNPTDYKSILLLC | 0.17 ± 0.34
4 | DGVNAFNR | 0.203 ± 0.2
5 | IMMWFYPARTRQELASYEDQ | 2.12 ± 0.089
6 | SMYPGLDT | -0.353 ± 0.79
7 | NIEVWMFYSLMNMNEA | -0.509 ± 1.1
8 | YVNPKVAWAGIDSAAEEDSD | 0.047 ± 0.49
9 | RIIKYIMNGRRFVVLWRVFS | 5.342 ± 0.052
10 | NRLDNFRHQTEGKRRV | -0.841 ± 1.1
11 | VVFTGWYHEGWRVV | 0.914 ± 0.18
12 | KCYQSFNNADALM | -0.627 ± 0.33
13 | FAAHCFDFMIHVPMGPAENK | 3.69 ± 0.13
14 | IVKFKKRVDRHLSSGDQLVR | 1.19 ± 0.61
15 | FQNGQDGYGESLV | -0.898 ± 1.1
16 | SCGVDCSVSGC | 0.903 ± 0.57
17 | NLSNELSCI | inactive
18 | SYFGSAHKVAEAHL | 0.377 ± 0.45
19 | LWVSSSLSL | -0.74 ± 0.45
20 | TARDVFIAVFA | 0.089 ± 1.1
21 | WLVKLSGDMF | 2.54 ± 0.073
22 | VYIAAHTCIC | 4.93 ± 0.079
23 | SALNYSFFLL | -0.27 ± 1.1
24 | LCLDIMFVSNI | -0.696 ± 1
25 | FGFSEGEMVPSFI | -1.21 ± 1

Row | Substance | amyloid nucleation score
26 | ILGQAGMILFNKLAPRGALR | inactive
27 | IQTHSSSWG | -0.288 ± 1
28 | WRIYQDTFCLSIS | 3.87 ± 0.076
29 | SLYFLTGWSFMMDQGVSTPC | 6.934 ± 0.058
30 | GINVSYLFIPHVGKICGNYN | 7.151 ± 0.047
31 | RFFCLWFSWKNLGFNVKRAV | 5.02 ± 0.082
32 | FGKNYNFCNV | -0.184 ± 0.63
33 | SYYLALYLMEYFYLDDARLN | -1.2 ± 1
34 | AGASSRKWGLYDVYVERSEA | inactive
35 | SGIWFQQDMMN | -0.258 ± 0.55
36 | IEGDLFVRLRLRKLSQLFKA | 0.196 ± 0.77
37 | YKSSGLLSYTSIGNVDIYFV | 6.26 ± 0.079
38 | SWSCMTRW | 5.464 ± 0.049
39 | CFPPFLC | 0.13 ± 1.1
40 | TLFSYEYVYKFMGPRFKGAG | -0.746 ± 0.54
41 | VSAGWSTST | 3 ± 0.09
42 | KWYKVVNMALALISMWSQAW | -0.701 ± 0.63
43 | SFGHATLYSFH | -0.058 ± 0.65
44 | GSPWGSHGRHGLKHTKALKA | 1.1 ± 0.25
45 | LGFDASLKLFLVQQGLSN | -0.341 ± 0.33
46 | NADQLLIGELQLTLGLWPIR | 1.14 ± 0.16
47 | LYIET | -1.28 ± 0.63
48 | NTYLSMEFLLTP | inactive
49 | GAGWFNDFVHLPWHLEVSNY | -1.17 ± 1.1
50 | TGHFKKYVKGEGADDSNCAL | 0.347 ± 0.29

Row | Substance | amyloid nucleation score
51 | STCGEAVKTFLVGLFELFMV | 0.452 ± 0.66
52 | ALGTEFSVPKFTDGVNMAAR | -0.451 ± 0.48
53 | SSMILLVYCPYVPWNRSRR | 4.8 ± 0.041
54 | TFVLSNC | -0.356 ± 0.65
55 | GGDLNHHFAWTTNKMHDERR | 4.537 ± 0.038
56 | NCFRVFNSFSIFGAFRTMDR | 5.22 ± 0.064
57 | RDWQYRIYVQCNR | 2.17 ± 0.14
58 | LNILHNFRKRTLFAAMFVLR | inactive
59 | DGSHYFIVRDPVNSCLSSWV | -0.668 ± 0.36
60 | SCLTDQDERPGLWELSCRYM | 1.1 ± 0.34
61 | HLRIGLIN | -0.467 ± 0.43
62 | KIVSWAMIIARVVYCDQDL | inactive
63 | LTRRVGIFFHFG | 4.74 ± 0.05
64 | GFLFMVMRSQLRCVYINKY | 1.61 ± 0.15
65 | FPIAVVKRALDLAVNGLESD | 0.021 ± 0.44
66 | SHMHEEHIVEECTCSTPRRK | 1.32 ± 0.44
67 | LVTARQLARI | 0.121 ± 0.24
68 | GVQTFVMTPTCKRNWLQDGR | 0.233 ± 0.27
69 | LAGNKYPWLS | -1.1 ± 0.53
70 | HWWLVIAMNRLGCFGEFMMR | -0.547 ± 0.63
71 | DSSGFCMMVYYIQ | -0.365 ± 0.76
72 | VNNATKIGWSSMAIRDNKTI | -0.142 ± 0.49
73 | NVIMMDLWVDLAFKSLGYG | 6.291 ± 0.046
74 | STQYPTMVERLS | 1.75 ± 0.3
75 | LMCNKESSNPICGLWVCFWA | 9.489 ± 0.037

Row | Substance | amyloid nucleation score
76 | FKFKLGNGIMDGSRMGHWAL | 1.17 ± 0.47
77 | LLNFMCIYYEWFQRSAEHAT | -0.605 ± 0.76
78 | YANDFLRLVHVWFREVIIKL | -0.398 ± 1
79 | VSIVRYIFSPNWFVTIASIY | -1.51 ± 0.49
80 | SDPHMHD | 0.521 ± 0.25
81 | VMGYGKRLMSHLGMKSRTRL | 0.468 ± 0.29
82 | PWSSHCSCVFNNKDLILGNT | -0.21 ± 0.79
83 | VYATFPSTIYLMLVFMESGV | inactive
84 | INCFSLLEPLEYFSRLCQQR | -0.276 ± 0.55
85 | VRHGMSIFSCYPVTPTRLER | 0.266 ± 0.38
86 | RNVACFSAVT | -0.283 ± 0.63
87 | ARSPCCLYQMHIYFAKAFAD | -0.599 ± 0.33
88 | RADTRDSGVVEACKGWSHEE | 0.451 ± 0.34
89 | SFKVMYKENNTNLGSLLWDG | 0.049 ± 0.21
90 | LRVQGGWL | 1.49 ± 0.34
91 | YSYSIRLRCFASRYIFVRVR | 0.436 ± 0.66
92 | SDEIECCKYFFGYL | 5.347 ± 0.047
93 | LNHGNMEYWLSMDVINLSQI | 0.238 ± 0.3
94 | FIIVK | -1.32 ± 0.41
95 | YNVTYLLRCFSILVSRVLKV | inactive
96 | YGRLECISWCPISIHCGGAR | 3.47 ± 0.11
97 | SGFFAVGILITTLPLRGNER | 0.22 ± 0.45
98 | FIGVSGLRCRGVMCSCYASY | 1.53 ± 0.17
99 | FSVRLSELSMTNLSTQYEIS | 1.82 ± 0.15
100 | DDDNRNNLLWAMNADLGLRC | 2.32 ± 0.091

Row | Substance | amyloid nucleation score
101 | IASRLTPHSLYFLINVGRGR | 2.88 ± 0.14
102 | LWLVYSESWSMYAMS | 1.19 ± 0.12
103 | IIMPF | -0.682 ± 0.64
104 | KIWHLSQYCAVFSLVFKGLN | 2.41 ± 0.15
105 | NHLIV | -1.09 ± 0.3
106 | RGMWRCHNG | 1.49 ± 0.37
107 | LVSFGPLMDQGSCIALHSRR | 0.162 ± 0.31
108 | IVGHRVLACVRPRRVVTRYG | 0.118 ± 0.63
109 | LRSGGLFRDIMCRRDYVRCF | 1.23 ± 0.32
110 | MKNTVE | -0.803 ± 1
111 | WCRWMGMH | 0.543 ± 0.47
112 | VGIYMIWLISSS | inactive
113 | QKGHSRLQPWSLSPYVYRPL | 0.556 ± 0.42
114 | PSLRV | 1.08 ± 0.42
115 | TAFSNRCLIQSQKSYLQFSV | inactive
116 | YEGLF | inactive
117 | LFLGLFKLCNLASFMLWSWF | -0.627 ± 1
118 | FPMFSYTSMHYGH | 1.83 ± 0.17
119 | TMSFFLGSLEVL | -1.09 ± 0.48
120 | PCISDIFKMDNIYGQQSLFP | -0.266 ± 1.1
121 | IWTTYFMGLRT | -0.394 ± 0.78
122 | VVRAFTDKPRSVSDSLGVIN | 1.16 ± 0.18
123 | FKGVCCMHNELASIDQWVGG | 0.192 ± 0.56
124 | DTKTIRFLYKRYRLSWQVSE | 4.587 ± 0.04
125 | QMGCWLGLLVDSLYLSWLVT | -0.2 ± 0.43

Row | Substance | amyloid nucleation score
126 | VGEKCDL | -0.023 ± 0.55
127 | SSQSRSISYGLGNCWSWWL | 2.71 ± 0.081
128 | YEPSATEPRLRRFHGEARLL | 0.32 ± 0.65
129 | GGVIVQYLPFSNYLRKQGSL | -0.304 ± 0.39
130 | VLSSHRFNEAKMN | -0.366 ± 0.41
131 | SRTDRLDGCAWLLYDCTMGD | -0.211 ± 0.53
132 | CLSLSLVMSVGVLKSISQYS | -0.017 ± 1
133 | LDKKVSVSAVRLTRRDASEE | 2.25 ± 0.098
134 | YIMSFRY | -0.592 ± 0.79
135 | CILLTGPSYSLKLAYSDCLS | -1.15 ± 0.43
136 | RTVIQQVPAPLARAGVRWGW | 3.17 ± 0.097
137 | TRVAYRI | 0.219 ± 1
138 | IVMVPFLTIPVLYLVVMSSL | -0.788 ± 1.1
139 | CLIVFIADTAAYIKVSMSSV | inactive
140 | VPNFRS | 4.16 ± 0.037
141 | LKCHVLGVHCAL | 0.205 ± 0.19
142 | SSCRGIEWRFQTGNITQWLG | -0.165 ± 0.23
143 | ALMSCLLCVHWRLDSATGGR | 5.64 ± 0.09
144 | FDWFNAYSF | 0.092 ± 0.61
145 | LFNGECGICDQEKYLVRQTV | 0.065 ± 1.1
146 | GFMFVFWKFKHGLMGPCSRD | 0.684 ± 0.23
147 | EDIGSGGKTRFLDRRWVFCN | inactive
148 | WVYLRVFAHKKRAALSWAYS | -0.077 ± 0.34
149 | VRYDGSKAFEVYMNQIENGS | -0.905 ± 0.33
150 | CLPNTST | 0.075 ± 0.2

Row | Substance | amyloid nucleation score
151 | CKSFNSFSETPKYAKVVPRA | 0.633 ± 0.56
152 | LKMGVGCRGRLLWCSLTCMR | 1.46 ± 0.31
153 | GGDDVEDMYALGPNFFEGG | 0.627 ± 0.66
154 | HLWFLCRSYGGVLKFHTESV | 1.03 ± 0.43
155 | GAGPGSLAKRHYWDSSSQYE | -0.024 ± 0.31
156 | IYDCDTTMVSNNMRYILVLH | -0.858 ± 0.33
157 | FWYCTHTTSYDGTLNSEWVT | 0.307 ± 0.26
158 | SVQFRMIQDLRVAADGRPRA | 5.545 ± 0.05
159 | NRNKAASYNGLYCFDPAIVD | -1.09 ± 0.55
160 | SYVNKWAECLSCTTEYTMSK | inactive
161 | DVFGRGLMKEMGFVNFTLYY | inactive
162 | DHLYMYWGAQ | 1.02 ± 0.37
163 | CFNTTNEMRSTSSWLRYGSV | 3.83 ± 0.054
164 | YDPVAVF | -0.945 ± 0.43
165 | RSCFPCSCK | 0.472 ± 0.31
166 | LVRGMDFHLNLDEKFFSATL | -1.05 ± 0.56
167 | WDLLRVM | 0.312 ± 0.8
168 | FRYRKSLDCNAMVPERQTGT | 1.11 ± 0.53
169 | HRVFNEGASMGTCCSILLEM | 6.047 ± 0.042
170 | GTRYLRVSFNCAVRV | 1.22 ± 0.69
171 | SSVMPAVIAFACCCNKSTFA | -0.237 ± 0.38
172 | PCYFINFLRFSWNIQLYNVL | -0.668 ± 1.1
173 | IRGYYYGMRYSDWGSC | -0.06 ± 0.31
